Results published in US20220332804A1 (CSL INNOVATION, published 2022).

How the values were obtained:
Assay in all cases: SPR, mAb captured, C2 mutant analyte;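 also: Anti-C2 mAbs captured on goat anti-human IgG Biacore CM5 chips, alanine or serine C2 surface mutants flowed over at 37 °C, double-referenced sensorgrams fitted to a 1:1 binding model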
human C2 I320A = molecular target: T1, human C2 I320A (human, UniProt P06681 21-752)
T1 sequence: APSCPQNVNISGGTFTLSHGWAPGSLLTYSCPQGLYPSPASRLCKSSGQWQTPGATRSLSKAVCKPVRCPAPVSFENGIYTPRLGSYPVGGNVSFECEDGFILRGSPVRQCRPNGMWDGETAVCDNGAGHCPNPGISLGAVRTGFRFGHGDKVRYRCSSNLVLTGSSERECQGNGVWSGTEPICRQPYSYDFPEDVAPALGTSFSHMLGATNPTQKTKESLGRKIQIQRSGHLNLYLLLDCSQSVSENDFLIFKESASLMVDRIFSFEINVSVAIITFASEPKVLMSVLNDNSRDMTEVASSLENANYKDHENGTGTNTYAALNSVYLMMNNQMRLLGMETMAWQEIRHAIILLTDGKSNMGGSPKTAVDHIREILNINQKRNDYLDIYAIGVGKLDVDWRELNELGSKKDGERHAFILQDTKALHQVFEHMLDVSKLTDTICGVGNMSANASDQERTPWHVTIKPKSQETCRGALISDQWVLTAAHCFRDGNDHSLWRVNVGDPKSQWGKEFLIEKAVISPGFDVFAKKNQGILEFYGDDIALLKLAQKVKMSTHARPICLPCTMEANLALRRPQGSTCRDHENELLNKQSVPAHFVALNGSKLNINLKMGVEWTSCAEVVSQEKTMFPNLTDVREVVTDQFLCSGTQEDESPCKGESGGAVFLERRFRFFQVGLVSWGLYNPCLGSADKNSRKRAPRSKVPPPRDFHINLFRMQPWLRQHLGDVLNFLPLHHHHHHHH

human C2 E433A = molecular target: T2, human C2 E433A (human, UniProt P06681 21-752)
T2 sequence: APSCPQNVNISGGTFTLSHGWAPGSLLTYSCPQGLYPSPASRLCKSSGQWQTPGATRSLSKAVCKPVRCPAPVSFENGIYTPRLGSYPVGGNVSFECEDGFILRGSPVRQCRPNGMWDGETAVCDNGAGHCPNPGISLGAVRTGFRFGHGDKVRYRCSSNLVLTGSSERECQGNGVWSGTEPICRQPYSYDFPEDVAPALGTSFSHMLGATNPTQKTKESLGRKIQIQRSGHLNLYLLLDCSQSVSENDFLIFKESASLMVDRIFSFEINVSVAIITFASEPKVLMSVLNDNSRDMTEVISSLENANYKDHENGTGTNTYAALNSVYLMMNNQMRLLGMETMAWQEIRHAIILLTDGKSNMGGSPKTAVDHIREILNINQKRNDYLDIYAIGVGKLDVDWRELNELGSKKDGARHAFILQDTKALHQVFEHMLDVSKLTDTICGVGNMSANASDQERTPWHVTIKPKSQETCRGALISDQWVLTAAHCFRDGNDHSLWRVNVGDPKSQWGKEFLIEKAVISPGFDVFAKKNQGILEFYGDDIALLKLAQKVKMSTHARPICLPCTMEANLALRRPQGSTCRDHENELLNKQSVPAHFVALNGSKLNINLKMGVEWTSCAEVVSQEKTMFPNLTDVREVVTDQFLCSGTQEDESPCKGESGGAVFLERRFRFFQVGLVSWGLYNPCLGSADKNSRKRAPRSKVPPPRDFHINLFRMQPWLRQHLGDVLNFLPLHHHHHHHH

human C2 E450A = molecular target: T3, human C2 E450A (human, UniProt P06681 21-752)
T3 sequence: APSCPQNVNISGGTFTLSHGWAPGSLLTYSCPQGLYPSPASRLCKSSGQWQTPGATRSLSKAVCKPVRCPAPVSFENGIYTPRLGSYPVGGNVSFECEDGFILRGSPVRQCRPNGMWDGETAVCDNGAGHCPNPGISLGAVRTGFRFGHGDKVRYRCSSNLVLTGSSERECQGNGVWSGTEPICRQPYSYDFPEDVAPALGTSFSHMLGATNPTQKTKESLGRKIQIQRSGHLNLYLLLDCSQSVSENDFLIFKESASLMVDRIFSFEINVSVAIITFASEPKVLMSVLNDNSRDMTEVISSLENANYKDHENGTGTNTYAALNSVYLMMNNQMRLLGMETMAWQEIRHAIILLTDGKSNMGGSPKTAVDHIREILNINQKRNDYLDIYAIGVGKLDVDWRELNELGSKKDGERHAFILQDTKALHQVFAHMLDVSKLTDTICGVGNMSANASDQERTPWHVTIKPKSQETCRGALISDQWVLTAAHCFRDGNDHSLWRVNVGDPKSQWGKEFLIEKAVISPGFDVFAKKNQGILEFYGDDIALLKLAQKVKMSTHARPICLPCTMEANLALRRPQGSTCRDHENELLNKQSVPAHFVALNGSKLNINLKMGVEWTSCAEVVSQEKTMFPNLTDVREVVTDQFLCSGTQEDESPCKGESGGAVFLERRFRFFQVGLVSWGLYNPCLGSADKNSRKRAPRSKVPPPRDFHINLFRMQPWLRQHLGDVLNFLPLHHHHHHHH

human C2 E476A = molecular target: T4, human C2 E476A (human, UniProt P06681 21-752)
T4 sequence: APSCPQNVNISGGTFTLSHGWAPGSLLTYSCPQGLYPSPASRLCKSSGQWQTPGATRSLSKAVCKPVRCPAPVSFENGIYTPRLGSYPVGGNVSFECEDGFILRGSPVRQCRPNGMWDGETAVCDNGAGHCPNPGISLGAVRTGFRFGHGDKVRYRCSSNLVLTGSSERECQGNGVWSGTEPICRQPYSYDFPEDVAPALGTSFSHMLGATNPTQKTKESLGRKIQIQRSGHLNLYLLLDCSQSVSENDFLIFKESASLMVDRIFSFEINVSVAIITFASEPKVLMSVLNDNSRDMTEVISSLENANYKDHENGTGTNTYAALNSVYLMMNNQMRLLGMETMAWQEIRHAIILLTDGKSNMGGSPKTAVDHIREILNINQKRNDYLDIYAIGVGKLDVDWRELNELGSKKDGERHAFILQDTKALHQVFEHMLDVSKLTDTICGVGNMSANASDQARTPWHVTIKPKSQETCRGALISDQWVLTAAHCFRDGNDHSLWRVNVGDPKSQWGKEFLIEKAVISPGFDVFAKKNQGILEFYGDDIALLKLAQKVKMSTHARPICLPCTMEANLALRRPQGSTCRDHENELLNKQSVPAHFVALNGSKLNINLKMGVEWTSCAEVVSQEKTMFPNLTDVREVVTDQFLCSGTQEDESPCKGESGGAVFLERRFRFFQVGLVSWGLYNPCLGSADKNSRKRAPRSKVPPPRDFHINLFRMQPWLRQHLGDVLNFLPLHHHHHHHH

B1: RF16-214 (antibody, V domains shown)
VH: EVQLLESGGGLVQPGGSLRLSCAASGFTFSWYQMMWVRQAPGKGLEWVSRIYPSGGGTAYADSVKGRFTISRDNSKNTLYLQMNSLRAEDTAVYYCARDAGYGDNWGQGTLVTVSS
VL: QSALTQPPSVSVSPGQTASITCSGDKLGEKYASWYQQKAGQSPVMVIYQDRKRPSGIPERFSGSNSGNTATLTISGTQAMDEADYYCQAWDTRAVVFGGGTKLTVLG
In the case of B1, the binding result (human C2 I320A) is reported as “no binding”, the Kd (human C2 E433A) is reported as 16.4 nM and the Kd (human C2 E450A) is reported as 627 nM. It also gave a Kd (human C2 E476A) of 58.6 nM.
